This is an account of results in publication PMC9305271.

Experiment [1] has as its target intermediate horseshoe bat ACE2 (bACE2-Ra), peptide domain, residues 19-615 (Rhinolophus affinis (intermediate horseshoe bat)). The experiment in a line: SPR.
Experiment [2] has as its target bACE2-Ra-eGFP, full length, on BHK-21 cells (Rhinolophus affinis (intermediate horseshoe bat)). The experiment in a line: flow cytometry on cells.
The target of experiment [3] is intermediate horseshoe bat ACE2 (bACE2-Ra), peptidase domain, residues 19-615 (Rhinolophus affinis (intermediate horseshoe bat)). The experiment in a line: SPR.

pKd: −log10 of the molar value.

Regarding “SARS-CoV-2 receptor-binding domain (RBD) (from UniProt P0DTC2 319-541) (domain or fragment)”, in experiment [1], the pKd was 6.35. This substance had a double-positive rate in experiment [2] of 31.6%.
With “SARS-CoV-2 receptor-binding domain (prototype), residues 319-541 (from UniProt P0DTC2 319-541) (domain or fragment)”, in experiment [3], the negative logarithm of the Kd (pKd) was 6.26.
